Test results published in patent US20230322908A1 (AC IMMUNE, published 2023).

T1: TP-51 peptide (aa 352-414 of SEQ ID NO:1) (human)
T1 construct: Synthetic peptide (Pepscan)
T1 peptide: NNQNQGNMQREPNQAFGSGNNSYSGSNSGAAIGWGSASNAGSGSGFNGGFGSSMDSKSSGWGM


Experiments:
[1] = biological target: T2, recombinant human aggregated full-length TDP-43 (human, UniProt Q13148 1-414); test: SPR, immobilized aggregated TDP-43
T2 construct: also called aggregated TDP-43; aggregated FL TDP-43
Method: (§1) Binding avidity to soluble or aggregated FL TDP-43 was evaluated by determing the dissociation constants (KD) using surface plasmon resonance (SPR; Biacore T200, GE Healthcare Life Sciences). Recombinant human soluble or aggregated FL TDP-43 were immobilized on a CM5 Series S sensor chip (GE Healthcare Life Sciences) by amine coupling. Soluble TDP-43 was immobilized at a concentration of 5 µg/ml in 10 mM sodium acetate (pH 4.5) with a flow rate of 5 µl/min for 420 seconds resulting in an immobilization level of 150 RU. Aggregated TDP-43 was immobilized at a concentration of 50 µg/ml in 10 mM sodium acetate (pH 4.5) with a flow rate of 5 µl/min for 840 seconds resulting in an immobilization level of 110 RU. Biotinylated TP-73 peptide (aa 181-190 of SEQ ID NO:1) was immobilized on a Series S Sensor Chip SA (GE Healthcare Life Sciences) at a concentration of 5 µg/ml in PBS-P⁺ with a flow rate of 5 µl/min for 30 seconds resulting in an immobilization level of 400 RU. […] The antibodies were injected at a flow rate of 50 µl/min for 90 seconds contact time and 700 seconds dissociation phase followed by three regenerations with 10 mM glycine-HCl pH 1.7. For the optimized SPR protocol the antibodies were diluted 3-fold starting from 300 nM and dilute down to 1.2 nM and injected for 300 seconds at 30 µl/min followed by 600 seconds dissociation. The surface was regenerated by one injection with 10 mM glycine-HCl pH 1.7. Results obtained from binding kinetics were double-referenced using a blank flow cell and a buffer cycle and were evaluated with a global 1:1 fitting model with RI. Avidities for 11 antibodies and two Fab fragments are depicted in Table 8. […] In addition, some antibodies show preferential binding to aggregated TDP-43 as compared with soluble TDP-43.

[2] = biological target: T3, recombinant human full-length TDP-43 (TAR DNA-binding protein 43), soluble (human, UniProt Q13148 1-414); test: SPR, immobilized soluble TDP-43
T3 construct: Used on Luminex beads, coated on ELISA plates, and immobilized or injected in SPR; also called FL TDP-43; TDP-43 protein
T3 sequence (Q13148 whole entry): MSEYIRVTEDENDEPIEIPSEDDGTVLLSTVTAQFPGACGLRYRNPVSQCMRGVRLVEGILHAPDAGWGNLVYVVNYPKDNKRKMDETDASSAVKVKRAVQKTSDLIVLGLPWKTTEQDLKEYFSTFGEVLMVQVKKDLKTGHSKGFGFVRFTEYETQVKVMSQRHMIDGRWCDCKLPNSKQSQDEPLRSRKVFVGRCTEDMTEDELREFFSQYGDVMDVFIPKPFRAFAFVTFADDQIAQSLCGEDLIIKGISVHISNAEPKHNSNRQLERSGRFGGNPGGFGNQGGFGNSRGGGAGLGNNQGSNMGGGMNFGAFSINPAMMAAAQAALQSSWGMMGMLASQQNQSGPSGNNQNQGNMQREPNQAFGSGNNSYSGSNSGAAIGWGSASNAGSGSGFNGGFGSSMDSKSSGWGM
Method: as §1

[3] = biological target: T1, TP-51 peptide (aa 352-414 of SEQ ID …); test: SPR 8K, mAb captured, TP-51 injected
Method: The instrument was primed with running buffer PBS-P+. Fc 1-2 of channels 1-8 (8 K) were activated with a fresh solution of EDC/NHS(Amine Coupling Kit, 1:1 ratio of both reagents, GE Healthcare Life Sciences, BR-1006-33) at 10 µL/min for 420 sec and goat anti-human antibody (GE Healthcare Life Sciences, 29234600) was immobilized at 25 µg/mL in 10 mM sodium acetate pH 5 for 420 sec. Next, all Fc were quenched with 1 M ethanol amine(GE Healthcare Life Sciences, BR-1006-33), for 420 sec. Any non-covalently bound antibodies were removed by two regenerations with 10 mM Glycine-HCl pH 1.7 for 30 sec. Immobilization levels were evaluated following ethanolamine quenching (10000 RU for all channels).
Each cycle started with non-covalent capture of humanized variants which were diluted in running buffer to a final concentration of 2 µg/mL and injected for 60 sec with a flow rate of 10 µL/min. TDP-43 mAbs were captured on channels 1-8, leaving Fc 1 as a blank Fc. Capture levels were evaluated following a 120 sec stabilization period after each mAb injection and ranged from 300-500 RU.
Injections of TP-51 peptide (Pepscan) were performed in single-cycle kinetics with increasing concentrations ranging from 1.2-100 nM prepared from serial 3-fold dilutions. Injections were performed with contact times of 300 sec/injection at a flow rate of 25 µL/min. A dissociation phase of 3600 sec followed the final injection. Sensor surface was regenerated by one injection of 10 mM Glycine-HCl pH 1.7 at a flow rate of 10 µL/min for 120 sec, followed by a stabilization period of 300 sec. Results obtained from single-cycle kinetics were double-referenced using the blank Fc 1 and buffer cycles and evaluated by Biacore 8 K evaluation software with 1:1 kinetic fit model with RI and global Rmax. The following kinetic parameters were obtained: association rate constant (ka), dissociation rate constant (kd), affinity constant (KD) and saturation response (Rmax).

[4] = biological target: T3, recombinant human full-length TDP-43 …; test: SPR 8K, immobilized soluble TDP-43
Method: The instrument was primed with running buffer PBS-P+ and flow cells (Fc) 1 and 2 of channels 1-8 were activated with a fresh solution of EDC/NHS (Amine Coupling Kit, 1:1 ratio of both reagents, GE Healthcare Life Sciences, BR-1006-33) at 10 µL/min for 420 sec. Soluble TDP-43 (Selvita) was diluted in sodium acetate pH 4.5 to a final concentration of 5 µg/mL and injected for 900 sec with a flow rate of 5 µL/min on Fc 2. All flow cells were quenched with 1 M ethanol amine (GE Healthcare Life Sciences, BR-1006-33), at 10 µL/min for 420 sec. Immobilization levels after ethanolamine quenching were 680 RU on all eight channels. Prior to analysis, two Startup cycles were run. Increasing mAbs concentrations were injected in single-cycle kinetics ranging from 1.2 to 100 nM, prepared from a 3-fold serial dilution in running buffer, with a contact time of 300 sec and a dissociation time of 900 sec at a flow rate of 30 µL/min. Each cycle was followed by one regeneration using 10 mM Glycine-HCl pH 1.7 with a contact time of 30 sec at 30 µL/min, followed by a stabilization period of 300 sec. Results obtained from single-cycle kinetics were double-referenced using the blank Fc 1 and buffer cycles and evaluated using Biacore 8 K evaluation software using the 1:1 kinetic fit model with RI and global Rmax. The following kinetic parameters were obtained: association rate constant (ka), dissociation rate constant (kd), affinity constant (KD) and saturation response (Rmax).

T2 sequence (Q13148 whole entry): as above

Kd [1] [nM]	koff [1] [s⁻¹]	kon [1] [M⁻¹ s⁻¹]	Kd [2] [nM]	koff [2] [s⁻¹]	kon [2] [M⁻¹ s⁻¹]	Kd [3] [nM]	koff [3] [s⁻¹]	kon [3] [M⁻¹ s⁻¹]	Kd [4] [nM]	koff [4] [s⁻¹]	kon [4] [M⁻¹ s⁻¹]	Binder
4.64	0.00585	1.26e+06										ACI-7069-642A10-Ab1 (antibody, mouse IgG1, V domains shown, Mouse IgG1, kappa, from hybridoma; also called 642A10B11) VH: QVQLQQPGAELVKPGASVKLSCKASGYTFTKYWMHWVKQRPGQGLEWIGEINPSNGRTNYNEKFKSKATLTVDKSSSTAYMQLSSLTSEDSAVYYCARYMDYWGQGTSVTVSS VL: not shown
21.8	0.00176	94000	21.8	0.00267	128000							642D12B4 Fab (Fab, V domains shown, Fab fragment; also called Fab fragment of ACI-7069-642D12-Ab1) VH: EVQLQQSGAELVKPGASVRLSCTASGFNIKDPYMHWVRQRPKQGLEWIGRIDPADGNTKYDPKFQGKATLTADTSSNVAYLHLSSLTSEDTAVYYCARFYGSSHWYFDVWGAGTTVTVSS VL: DIKMTQSPSSMYASLGERVTITCKASQDIKRYLSWYQQKPWKSPKILIYYATSLADGVPSRFSGTGSGQDYSLTISSLESDDVATYYCLQQGESPYTFGGGTKLEIK
						1.7	0.00021	130000	0.238	9.9e-06	42000	cACI-7069-633B12-Ab1 (human IgG4 S228P chimeric) (antibody, V domains shown, Murine variable domains on a human IgG4 (S228P) constant domain and human kappa; also called chimeric antibody) VH: EVQLQQSGPELVKPGASVKISCKTSGFTFTEYSMHWVKQSHGKSLEWIGGINPNNGGTSYNQKFKGKATLTVDKSSSTAYMELRSLTSEDSAVYYCARESWGQGTTLTVSS VL: not shown
						9.4	0.0011	120000	1.01	3e-05	30000	hACI-7069-633B12-Ab1_H19L14 (IgG4) (antibody, V domains shown) VH: QVQLVQSGAEVKKPGASVKVSCKTSGFTFTEYSMHWVRQAPGQRLEWIGGINPGNAGTSYNQKFKGRVTITVDTSASTAYMELSSLRSEDTAVYYCARESWGQGTTVTVSS VL: DVVMTQSPLSLPVTLGQPASISCKSSQSLLHSDAKTYLNWLQQRPGQSPRRLIYLVSKLDSGVPDRFSGSGSGTDFTLKISRVEAEDLGVYYCFQGTHFPHTFGQGTKLEIK
						1.9	0.00023	120000	0.431	1.4e-05	33000	hACI-7069-633B12-Ab1_H19L18 (IgG4) (antibody, V domains shown) VH: QVQLVQSGAEVKKPGASVKVSCKTSGFTFTEYSMHWVRQAPGQRLEWIGGINPGNAGTSYNQKFKGRVTITVDTSASTAYMELSSLRSEDTAVYYCARESWGQGTTVTVSS VL: DVVMTQSPLSLPVTLGQPASISCKSSQSLLHSDAKTYLNWLQQRPGQSPRRLIYLVSKLDSRVPDRFSGSGSGTDFTLKISRVEAEDLGVYYCFQGTHFPHTFGQGTKLEIK
						13.1	0.00093	70000	1.38	3.5e-05	26000	hACI-7069-633B12-Ab1_H19L17 (IgG4) (antibody, V domains shown) VH: QVQLVQSGAEVKKPGASVKVSCKTSGFTFTEYSMHWVRQAPGQRLEWIGGINPGNAGTSYNQKFKGRVTITVDTSASTAYMELSSLRSEDTAVYYCARESWGQGTTVTVSS VL: DVVMTQSPLSLPVTLGQPASISCKSSQSLLHSDAKTYLNWLLQRPGQSPRRLIYLVSKLDSGVPDRFSGSGSGTDFTLKISRVEAEDLGVYYCFQGTHFPHTFGQGTKLEIK
						2.9	0.00026	90000	0.684	1.9e-05	27000	hACI-7069-633B12-Ab1_H20L19 (IgG4) (antibody, V domains shown) VH: EVQLVQSGAEVKKPGASVKVSCKTSGFTFTEYSMHWVRQAPGQRLEWIGGINPGNAGTSYNQKFKGRVTITVDTSASTAYMELSSLRSEDTAVYYCARESWGQGTTVTVSS VL: DVVMTQSPLSLPVTLGQPASISCKSSQSLLHSDAKTYLNWLQQRPGQSPKRLIYLVSKLDSRVPDRFSGSGSGTDFTLKISRVEAEDLGVYYCFQGTHFPHTFGQGTKLEIK
						9	0.0012	130000	1.34	4.2e-05	31000	hACI-7069-633B12-Ab1_H17L14 (IgG4) (antibody, V domains shown) VH: QVQLVQSGAEVKKPGASVKVSCKASGFTFTEYSMHWVKQAPGQRLEWMGGINPGNAGTSYNQKFKGRVTITVDTSASTAYMELSSLRSEDTAVYYCARESWGQGTTVTVSS VL: DVVMTQSPLSLPVTLGQPASISCKSSQSLLHSDAKTYLNWLQQRPGQSPRRLIYLVSKLDSGVPDRFSGSGSGTDFTLKISRVEAEDLGVYYCFQGTHFPHTFGQGTKLEIK
						9.9	0.0013	140000	0.605	3.3e-05	55000	hACI-7069-633B12-Ab1_H16L14 (IgG4) (antibody, V domains shown) VH: EVQLVQSGAEVKKPGASVKVSCKASGFTFTEYSMHWVRQAPGQRLEWMGGINPGNAGTSYNQKFKGRVTITVDTSASTAYMELSSLRSEDTAVYYCARESWGQGTTVTVSS VL: DVVMTQSPLSLPVTLGQPASISCKSSQSLLHSDAKTYLNWLQQRPGQSPRRLIYLVSKLDSGVPDRFSGSGSGTDFTLKISRVEAEDLGVYYCFQGTHFPHTFGQGTKLEIK
						8.3	0.00094	110000	1.2	3.5e-05	29000	hACI-7069-633B12-Ab1_H15L14 (IgG4) (antibody, V domains shown) VH: QVQLVQSGAEVKKPGASVKVSCKASGFTFTEYSMHWVRQAPGQRLEWMGGINPGNAGTSYNQKFKGRVTITVDTSASTAYMELSSLRSEDTAVYYCARESWGQGTTVTVSS VL: DVVMTQSPLSLPVTLGQPASISCKSSQSLLHSDAKTYLNWLQQRPGQSPRRLIYLVSKLDSGVPDRFSGSGSGTDFTLKISRVEAEDLGVYYCFQGTHFPHTFGQGTKLEIK
						11.1	0.0014	130000	1.74	4.4e-05	25000	hACI-7069-633B12-Ab1_H20L14 (IgG4) (antibody, V domains shown) VH: EVQLVQSGAEVKKPGASVKVSCKTSGFTFTEYSMHWVRQAPGQRLEWIGGINPGNAGTSYNQKFKGRVTITVDTSASTAYMELSSLRSEDTAVYYCARESWGQGTTVTVSS VL: DVVMTQSPLSLPVTLGQPASISCKSSQSLLHSDAKTYLNWLQQRPGQSPRRLIYLVSKLDSGVPDRFSGSGSGTDFTLKISRVEAEDLGVYYCFQGTHFPHTFGQGTKLEIK
